In this assay the target is T1, BabA^AD (residues 25 to 460 of mature BabA) (Helicobacter pylori 17875/Leb (CCUG …)).
T1 chain: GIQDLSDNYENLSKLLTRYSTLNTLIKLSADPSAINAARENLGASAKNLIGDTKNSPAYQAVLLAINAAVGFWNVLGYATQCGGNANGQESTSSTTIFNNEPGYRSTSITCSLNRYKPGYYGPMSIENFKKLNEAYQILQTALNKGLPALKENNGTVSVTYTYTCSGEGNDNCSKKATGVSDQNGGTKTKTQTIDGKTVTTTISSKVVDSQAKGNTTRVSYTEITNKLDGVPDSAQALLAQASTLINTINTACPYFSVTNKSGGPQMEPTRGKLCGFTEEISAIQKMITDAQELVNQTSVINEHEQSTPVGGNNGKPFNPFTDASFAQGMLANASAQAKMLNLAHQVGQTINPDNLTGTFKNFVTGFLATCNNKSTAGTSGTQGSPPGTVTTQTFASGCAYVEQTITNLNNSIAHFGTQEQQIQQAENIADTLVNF
Kind of assay: crystal structure.

This note sets out measurements from paper PMC10245814 (bioRxiv, 2023).

B1: nanobody Nb-ER19 (VHH)
VHH: QVQLQESGGGLVQPGGSLRLSCAASGSIFSGNVMGWYRQAPGKLREWVAAITPQGVPNYADSVKGRFTISRDNAKNMLYLQMSSLKPEDTALYYCNRLPNYRSWGQGTQVTVSS
Take B1: the binding result is reported as “binds”.
